In PMC4412080:

Biological target: mouse anti-human CD4 IgG (BD Biosciences) (mouse)
Experiment: ELISA; wells coated overnight at 4°C in PBS with mouse anti-human CD4 IgG (4 μg/mL) or with BSA; blocked with 3% BSA; phage (ID1-mZ 3 × 10^8 to 1 × 10^10 PFU/mL) in 0.1% Tween, 0.1% BSA in PBS for 1 h at r.t.; detected with HRP-conjugated anti-M13 antibody and TMB; mid-point of binding estimated; multivalent display; how the phage was prepared is not told

Substance: ID1-mZ phage (M13KE-derived phage that displays the minimized Z-domain of protein A and a TEV recognition sequence inside pIII, in linker L1)
- EC50: 0.6 pM
